# Assay results taken from article PMC5481817, “Developing Targeted Hybrid Imaging Probes by Chelator Scaffolding” (Bioconjugate chemistry, 2017).
# *1 amine or outer side, *2 acyl side, *3 side chain or, on linkers, in order; H or OH if unused. Where a SMILES comes first, the peptide text is derived from it. Bridges are numbered along the chain shown (N, C = ends). Roman numbers before positions name the chains, in order. [ ]: non-standard residue; d: D form. X1 = C/C1=C/C(=O)N(O)CCC[C@H](NC(=O)CCN2C(=O)CC([*:2])C2=O)C(=O)OCC/C(C)=C\C(=O)N(O)CCC[C@H](NC(=O)CCN2C(=O)CC([*:1])C2=O)C(=O)OCC/C(C)=C\C(=O)N(O)CCC[C@H](NC(=O)CCCCC[N+]2=C(C=CC3=CC(=CC=C4N(C)c5ccc(S(=O)(=O)[O-])cc5C4(C)C)CCC3)C(C)(C)c3cc(S(=O)(=O)O)ccc32)C(=O)OCC1; Mpa = O=C(O)CCS
# Tests used:
# [1] = format: physicochemical; details: pH 7.4
# Procedure: (§1) [^68Ga]Sulfo-Cy7-FSC-MG and [^68Ga]Sulfo-Cy7-FSC-RGD (6 MBq) were diluted with phosphate buffered saline to a concentration of 1 μM. Subsequently 50 μL of this solution was added to six Eppendorf tubes containing 450 μL PBS and 500 μL octanol. The mixture was vortexed (1400 rpm) at RT for 15 min using a MS 3 basic vortexer (IKA, Staufen, Germany) followed by centrifugation for 2 min at 4500 rpm. Aliquots of 100 μL of both phases were transferred to plastic vials, measured in the γ-counter and logD values were calculated. For stability testing, radiolabeled tracers were diluted with 450 μL fresh human serum and 450 μL PBS as control to a concentration of 2 μM followed by incubation at 37 °C. After 1, 2, and 4 h (n = 3) 50 μL aliquots were precipitated with acetonitrile (1:1) and centrifuged for 2 min at 14 × 10^3 rpm. The supernatant was analyzed by radio-RP-HPLC to evaluate for decomposition and corresponding chromatograms are shown in Supporting Information. For protein binding measurement aliquots were analyzed by size exclusion chromatography using MicroSpin G-50 Columns (Sephadex G-50, GE Healthcare, Vienna, Austria) in triplicates. […] Column and eluate were measured in the γ-counter and percentages of nonprotein bound radiolabeled peptide (column) and protein bound radiotracer (eluate) were calculated.
# [2] = in vitro; format: in vitro ADME, human; details: human, serum
# Procedure: as §1
# [3] = physchem; format: physicochemical; details: buffer or solvent
# Procedure: [^68Ga]Sulfo-Cy7-FSC-MG and [^68Ga]Sulfo-Cy7-FSC-RGD (6 MBq) were diluted with phosphate buffered saline to a concentration of 1 μM. Subsequently 50 μL of this solution was added to six Eppendorf tubes containing 450 μL PBS and 500 μL octanol. The mixture was vortexed (1400 rpm) at RT for 15 min using a MS 3 basic vortexer (IKA, Staufen, Germany) followed by centrifugation for 2 min at 4500 rpm. Aliquots of 100 μL of both phases were transferred to plastic vials, measured in the γ-counter and logD values were calculated. For stability testing, radiolabeled tracers were diluted with 450 μL fresh human serum and 450 μL PBS as control to a concentration of 2 μM followed by incubation at 37 °C. After 1, 2, and 4 h (n = 3) 50 μL aliquots were precipitated with acetonitrile (1:1) and centrifuged for 2 min at 14 × 10^3 rpm. The supernatant was analyzed by radio-RP-HPLC to evaluate for decomposition and corresponding chromatograms are shown in Supporting Information. For protein binding measurement aliquots were analyzed by size exclusion chromatography using MicroSpin G-50 Columns (Sephadex G-50, GE Healthcare, Vienna, Austria) in triplicates. First, the columns were centrifuged at 750 rcf for 1 min to remove the storage buffer. After adding 25 μL of incubation solution columns were centrifuged again for 2 min with 2000 rcf. Column and eluate were measured in the γ-counter and percentages of nonprotein bound radiolabeled peptide (column) and protein bound radiotracer (eluate) were calculated.
# [4] = test system: A431-CCK2R cells; experiment: CCK-2 receptor internalization assay (radioligand); format: cell-based, human; details: for unspecific membrane bound amount: blocked with pentagastrin
# Procedure: To determine the receptor-mediated radioligand uptake A431-CCK2R cells were seeded into 12-well plates (Nunc, Thermo Scientific) with a density of 2 × 10^6 cells per well and left to grow overnight at 37 °C. At the day of the experiment each well was washed twice with fresh internalization medium (DMEM containing 1% fetal bovine serum) followed by the adjustment to a final volume of 1.2 mL with media. After dividing the plate into an unblocked and blocked compartment (6 wells each) 150 μL PBS/0.5% bovine serum albumin (BSA) solution or 150 μL blocking solution (100-fold molar excess of pentagastrin in PBS/0.5% BSA solution) were added and left for 10 min at room temperature. Hereafter, 150 μL of the radiolabeled peptide (1 nM [^68Ga]Sulfo-Cy7-FSC-MG in PBS/0.5% BSA approximately 3 × 10^4 cpm) was added to each well followed by incubation at 37 °C for 1 and 2 h, respectively. After removal of the supernatant each well was washed two times with 1 mL ice-cold internalization medium and supernatants were collected in plastic vials (wash fraction). For determination of the membrane bound radiotracer cells were incubated twice with 1 mL ice-cold 0.05 M glycine-buffer (pH 2.8) for 5 min collecting the supernatants. Finally, internalized fraction was obtained by lysing the cells with 1 mL of 2 M sodium hydroxide solution (NaOH) two times and collecting the samples. To determine the amount of radiotracer of each fraction all samples were taken for γ-counter measurement against standard solution, i.e., 150 μL radiotracer.
# [5] = in vivo; details: mouse
# Procedure: All animal experiments were conducted in accordance with regulations and guidelines of the Czech Animal Protection Act (No. 246/1992), and with the approval of the Czech Ministry of Education, Youth, and Sports (MSMT-22421/2013–12), and the institutional Animal Welfare Committee of the Faculty of Medicine and Dentistry of Palacky University in Olomouc. The studies were performed using female 8–10-week-old athymic BALB/c nude mice (Envigo, Horst, The Netherlands). The number of animals was reduced as much as possible (n = 3 per group and time point for all experiments) and retro-orbital (r.o.) tracer injection as well as small animal imaging was carried out under 2% isoflurane anesthesia (FORANE, Abbott Laboratories, Abbott Park, IL, USA) to minimize animal suffering.
# Tumor xenografts were established near the front shoulder of mice by subcutaneous injection of 5 × 10^6 cells (U-87 MG) or 2 × 10^6 cells (A431-CCK2R) and the same amount of A431-mock cells as a control in 200 μL appropriate medium and Matrigel (1:1). The tumors were allowed to grow until they had reached a volume of 0.2 to 0.5 cm^3. To evaluate ex vivo biodistribution mice were injected with 1–2 MBq (0.05–0.14 nmol) of radiotracer per mouse and mice were sacrificed by cervical dislocation after 30 and 90 min for [^68Ga]Sulfo-Cy7-FSC-RGD and after 1 and 2 h in the case of [^68Ga]Sulfo-Cy7-FSC-MG. Tumors, blood, muscle tissue, and organs were extracted, weighed, and activity uptake of the samples was measured in the gamma counter. Results were expressed as percentage of injected dose per gram tissue (% ID/g). In vivo PET and CT images were acquired with an Albira PET/SPECT/CT small animal imaging system (Bruker Biospin Corporation, Wood-bridge, CT, USA). Xenograft bearing mice were injected with radiolabeled peptides in a dose of ~5 MBq corresponding to 1–2 μg (0.25–0.58 nmol) of peptide per mouse. Anaesthetized animals were positioned prone head first in the Albira system before the start of imaging. Static PET/CT imaging was carried out 30 and 90 min p.i. for [^68Ga]Sulfo-Cy7-FSC-RGD. Animals injected with [^68Ga]Sulfo-Cy7-FSC-MG were imaged 1 and 2 h p.i. A 10 min PET scan (axial FOV 148 mm) was performed, followed by a CT scan (axial FOV 65 mm, 45 kVp, 400 μA, at 400 projections). Scans were reconstructed with the Albira software (Bruker Biospin Corporation, Woodbridge, CT, USA) using the maximum likelihood expectation maximization (MLEM) and filtered backprojection (FBP) algorithms. After reconstruction, acquired data was viewed and analyzed with PMOD software (PMOD Technologies Ltd., Zurich, Switzerland). 3D images were obtained using VolView software (Kitware, Clifton Park, NY, USA). Near-infrared in vivo fluorescence imaging was performed with an In-Vivo MS FX PRO small animal imaging system (Bruker Biospin Corporation, Woodbridge, CT, USA). Sulfo-Cy7-FSC-MG and Sulfo-Cy7-FSC-RGD were injected in a dose of 0.25–0.58 nmol per mouse and after supine head first positioning, imaging was conducted in various time intervals up to 72 h p.i. An appropriate filter set (excitation = 730 nm and emission = 790 nm) was used for acquiring the Sulfo-Cy7-FSC-peptide - fluorescence in vivo. Identical illumination settings (acquisition time = 15 s, filters = 730/790 nm, f-stop = 2.8, field of view = 100 mm, and binning = 4 × 4) were used for acquiring all images, and fluorescence emission was normalized to photons/s/mm^2. Images were acquired and analyzed using Bruker MI SE software (Bruker Biospin Corporation, Woodbridge, CT, USA).
# [6] = test system: A431-CCK2R/A431-mock tumor xenograft-bearing BALB/c nude mice; experiment: Static micro-PET/CT imaging, A431-CCK2R/A431-mock xenografts; format: in vivo, mouse; details: static PET, 60 and 120 min post-injection
# Procedure: All animal experiments were conducted in accordance with regulations and guidelines of the Czech Animal Protection Act (No. 246/1992), and with the approval of the Czech Ministry of Education, Youth, and Sports (MSMT-22421/2013–12), and the institutional Animal Welfare Committee of the Faculty of Medicine and Dentistry of Palacky University in Olomouc. The studies were performed using female 8–10-week-old athymic BALB/c nude mice (Envigo, Horst, The Netherlands). […]
# Tumor xenografts were established near the front shoulder of mice by subcutaneous injection of 5 × 10^6 cells (U-87 MG) or 2 × 10^6 cells (A431-CCK2R) and the same amount of A431-mock cells as a control in 200 μL appropriate medium and Matrigel (1:1). […] Tumors, blood, muscle tissue, and organs were extracted, weighed, and activity uptake of the samples was measured in the gamma counter. Results were expressed as percentage of injected dose per gram tissue (% ID/g). […] After reconstruction, acquired data was viewed and analyzed with PMOD software (PMOD Technologies Ltd., Zurich, Switzerland). […] Near-infrared in vivo fluorescence imaging was performed with an In-Vivo MS FX PRO small animal imaging system (Bruker Biospin Corporation, Woodbridge, CT, USA). […] An appropriate filter set (excitation = 730 nm and emission = 790 nm) was used for acquiring the Sulfo-Cy7-FSC-peptide - fluorescence in vivo. […]
smiles,measurement,setting,value
"CSCC[C@H](NC(=O)[C@H](Cc1c[nH]c2ccccc12)NC(=O)CNC(=O)[C@H](Cc1ccc(O)cc1)NC(=O)[C@H](C)NC(=O)[C@@H](CCC(=O)O)NC(=O)CCSC1CC(=O)N(CCC(=O)N[C@H]2CCCN(O)C(=O)/C=C(/C)CCOC(=O)[C@@H](NC(=O)CCN3C(=O)CC(SCCC(=O)N[C@H](CCC(=O)O)C(=O)N[C@@H](C)C(=O)N[C@@H](Cc4ccc(O)cc4)C(=O)NCC(=O)N[C@@H](Cc4c[nH]c5ccccc45)C(=O)N[C@@H](CCSC)C(=O)N[C@@H](CC(=O)O)C(=O)N[C@@H](Cc4ccccc4)C(N)=O)C3=O)CCCN(O)C(=O)/C=C(/C)CCOC(=O)[C@@H](NC(=O)CCCCC[N+]3=C(C=CC4=CC(=CC=C5N(C)c6ccc(S(=O)(=O)[O-])cc6C5(C)C)CCC4)C(C)(C)c4cc(S(=O)(=O)O)ccc43)CCCN(O)C(=O)/C=C(/C)CCOC2=O)C1=O)C(=O)N[C@@H](CC(=O)O)C(=O)N[C@@H](Cc1ccccc1)C(N)=O (stereo partly drawn) [[^68Ga]Sulfo-Cy7-FSC-MG, metal not drawn] (I: [Mpa][dE]AYGWMDF-NH2 / II: [Mpa][dE]AYGWMDF-NH2; linker I:1-II:1 via X1)",logD,[1],-1.9 ± 0.17
same,fraction unbound at 2 μM,[2],< 0.3
same,"remaining at 1 h, 2 μM",[3],95.1 ± 0.2%
same,"remaining at 2 h, 2 μM",[3],94.9 ± 0.4%
same,"remaining at 4 h, 2 μM",[3],94.4 ± 0.1%
same,internalized activity,"[4]; blocked with pentagastrin in 100-fold molar excess, 1 h",0.19 ± 0.1%
same,internalized activity,"[4]; blocked with pentagastrin in 100-fold molar excess, 2 h",0.44 ± 0.41%
same,unspecific membrane bound amount,[4]; 1 h,0.13 ± 0.06%
same,unspecific membrane bound amount,[4]; 2 h,0.25 ± 0.23%
same,unspecific membrane bound amount of activity,"[4]; unblocked, 1 h",0.21 ± 0.08%
same,internalized activity,"[4]; unblocked, 1 h incubation",4.56 ± 0.39 % of total activity
same,unspecific membrane bound amount of activity,"[4]; unblocked, 2 h",0.31 ± 0.29%
same,internalized activity,"[4]; unblocked, 2 h incubation",8.75 ± 1.32 % of total activity
same,tissue to tissue ratio,"[5]; female, athymic BALB/c nude, total radioactivity",< 0.5
same,tissue uptake at 2 h,[5]; accumulation in kidneys,71.1 ± 7 %ID/g
same,tissue uptake at 2 h,[5]; accumulation in liver tissue,25.7 ± 3.3 %ID/g
same,tissue uptake at 1 h,[5]; blood,4.7 ± 0.7 %ID/g
same,tissue uptake at 2 h,[5]; blood,3 ± 0.5 %ID/g
same,tissue uptake at 1 h,[5]; tumor uptake,3.1 ± 0.9 %ID/g
same,tissue uptake at 2 h,[5]; tumor uptake,3.8 ± 0.7 %ID/g
same,PET target-to-organ contrast,[6],moderate target-to-organ contrast
